In the supplement of paper PMC10065799, “High-throughput profiling of sequence recognition by tyrosine kinases and SH2 domains using bacterial peptide display” (eLife, 2023):

Tests used:
SHP2-C SH2 = experiment: SH2 binding enrichment of the phosphorylated peptide, bacterial display (enrichment ratio); higher = better substrate or ligand; peptides without Tyr show the background
c-Src SH2 = experiment: as above
Grb2 SH2 = Grb2 SH2 (UniProt P62993); experiment: as above
Fyn = Fyn (UniProt P06241); experiment: phosphorylation enrichment, bacterial display (enrichment ratio); higher = better substrate or ligand; peptides without Tyr show the background
EPHB2 = EPHB2 (UniProt P29323); experiment: as above
FGFR3 = FGFR3 (UniProt P22607); experiment: as above
Fes = Fes (UniProt P07332); experiment: as above
c-Abl (mouse) = experiment: as above
EPHB1 = EPHB1 (UniProt P54762); experiment: as above
MERTK = MERTK (UniProt Q12866); experiment: as above
AncSZ = experiment: as above
Hck = Hck (UniProt P08631); experiment: as above
FGFR1 = FGFR1 (UniProt P11362); experiment: as above
c-Src = experiment: as above
Fer (mouse) = experiment: as above
Jak2 = Jak2 (UniProt O60674); experiment: as above
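Wherever SH2 binding enrichment of the phosphorylated peptide, bacterial display is given: peptide library displayed on the E. coli surface as eCPX fusions, selected cells deep-sequenced, score is each peptide's frequency after selection divided by its frequency in the input.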
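Wherever phosphorylation enrichment, bacterial display is given: 11-residue human phosphosite peptides and single-mutation variants displayed on the E. coli surface, counted by deep sequencing, each peptide's frequency after selection divided by its frequency in the unselected input library; frequency after pTyr selection over input frequency; kinase dosed for 20-30% of maximal phosphorylation in three min.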

Sequence of Jak2 (O60674 whole entry, looked up, the tested form may be a part): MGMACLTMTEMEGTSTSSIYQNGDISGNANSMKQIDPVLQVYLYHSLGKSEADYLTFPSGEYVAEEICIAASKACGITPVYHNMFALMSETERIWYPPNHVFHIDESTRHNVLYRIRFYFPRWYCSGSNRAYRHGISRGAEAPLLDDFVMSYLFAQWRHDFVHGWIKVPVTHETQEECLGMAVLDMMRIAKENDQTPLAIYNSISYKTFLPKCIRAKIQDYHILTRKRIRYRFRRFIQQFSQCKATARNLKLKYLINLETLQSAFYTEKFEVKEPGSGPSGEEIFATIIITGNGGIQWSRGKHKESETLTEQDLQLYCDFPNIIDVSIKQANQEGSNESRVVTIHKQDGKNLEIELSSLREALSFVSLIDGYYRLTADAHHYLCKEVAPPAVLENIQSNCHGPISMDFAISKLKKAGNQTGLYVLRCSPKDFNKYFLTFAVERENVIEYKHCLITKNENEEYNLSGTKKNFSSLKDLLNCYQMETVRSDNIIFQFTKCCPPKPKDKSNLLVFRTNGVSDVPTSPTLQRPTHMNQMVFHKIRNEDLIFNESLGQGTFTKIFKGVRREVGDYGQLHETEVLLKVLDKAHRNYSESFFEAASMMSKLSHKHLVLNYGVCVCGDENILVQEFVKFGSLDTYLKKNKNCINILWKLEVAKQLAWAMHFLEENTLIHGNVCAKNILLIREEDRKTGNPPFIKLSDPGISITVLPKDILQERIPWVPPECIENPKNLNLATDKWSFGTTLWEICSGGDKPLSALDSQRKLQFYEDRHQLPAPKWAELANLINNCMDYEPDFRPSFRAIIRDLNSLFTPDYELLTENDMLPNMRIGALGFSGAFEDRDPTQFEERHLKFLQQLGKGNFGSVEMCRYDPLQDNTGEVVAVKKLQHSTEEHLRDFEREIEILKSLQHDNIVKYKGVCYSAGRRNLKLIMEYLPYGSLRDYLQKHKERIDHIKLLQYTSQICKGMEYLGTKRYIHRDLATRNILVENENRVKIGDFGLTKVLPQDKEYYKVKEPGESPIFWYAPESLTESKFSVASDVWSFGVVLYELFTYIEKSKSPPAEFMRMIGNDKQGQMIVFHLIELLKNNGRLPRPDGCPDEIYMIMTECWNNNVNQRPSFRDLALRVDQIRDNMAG
Sequence of FGFR1 (P11362 whole entry, looked up): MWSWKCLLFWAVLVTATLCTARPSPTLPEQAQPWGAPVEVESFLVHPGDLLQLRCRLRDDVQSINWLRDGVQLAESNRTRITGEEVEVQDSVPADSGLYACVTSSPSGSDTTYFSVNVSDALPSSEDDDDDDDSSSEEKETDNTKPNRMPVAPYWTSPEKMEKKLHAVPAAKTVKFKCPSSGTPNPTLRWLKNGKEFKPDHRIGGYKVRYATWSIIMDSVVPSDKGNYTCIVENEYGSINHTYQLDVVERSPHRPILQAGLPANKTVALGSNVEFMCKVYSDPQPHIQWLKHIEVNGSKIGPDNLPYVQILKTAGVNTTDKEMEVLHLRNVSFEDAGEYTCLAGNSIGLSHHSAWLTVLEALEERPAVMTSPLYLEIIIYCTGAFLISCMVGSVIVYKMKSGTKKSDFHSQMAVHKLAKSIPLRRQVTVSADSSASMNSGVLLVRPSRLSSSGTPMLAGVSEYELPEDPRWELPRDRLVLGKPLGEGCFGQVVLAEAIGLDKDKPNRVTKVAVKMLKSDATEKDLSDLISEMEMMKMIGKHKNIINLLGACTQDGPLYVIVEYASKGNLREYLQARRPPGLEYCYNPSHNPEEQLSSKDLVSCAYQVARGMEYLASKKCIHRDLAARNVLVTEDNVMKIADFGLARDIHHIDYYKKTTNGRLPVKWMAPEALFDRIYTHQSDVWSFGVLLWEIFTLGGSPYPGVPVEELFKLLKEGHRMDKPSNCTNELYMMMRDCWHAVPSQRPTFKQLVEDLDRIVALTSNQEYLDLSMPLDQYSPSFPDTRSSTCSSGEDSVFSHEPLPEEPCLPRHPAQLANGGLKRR
Sequence of MERTK (Q12866 whole entry, looked up): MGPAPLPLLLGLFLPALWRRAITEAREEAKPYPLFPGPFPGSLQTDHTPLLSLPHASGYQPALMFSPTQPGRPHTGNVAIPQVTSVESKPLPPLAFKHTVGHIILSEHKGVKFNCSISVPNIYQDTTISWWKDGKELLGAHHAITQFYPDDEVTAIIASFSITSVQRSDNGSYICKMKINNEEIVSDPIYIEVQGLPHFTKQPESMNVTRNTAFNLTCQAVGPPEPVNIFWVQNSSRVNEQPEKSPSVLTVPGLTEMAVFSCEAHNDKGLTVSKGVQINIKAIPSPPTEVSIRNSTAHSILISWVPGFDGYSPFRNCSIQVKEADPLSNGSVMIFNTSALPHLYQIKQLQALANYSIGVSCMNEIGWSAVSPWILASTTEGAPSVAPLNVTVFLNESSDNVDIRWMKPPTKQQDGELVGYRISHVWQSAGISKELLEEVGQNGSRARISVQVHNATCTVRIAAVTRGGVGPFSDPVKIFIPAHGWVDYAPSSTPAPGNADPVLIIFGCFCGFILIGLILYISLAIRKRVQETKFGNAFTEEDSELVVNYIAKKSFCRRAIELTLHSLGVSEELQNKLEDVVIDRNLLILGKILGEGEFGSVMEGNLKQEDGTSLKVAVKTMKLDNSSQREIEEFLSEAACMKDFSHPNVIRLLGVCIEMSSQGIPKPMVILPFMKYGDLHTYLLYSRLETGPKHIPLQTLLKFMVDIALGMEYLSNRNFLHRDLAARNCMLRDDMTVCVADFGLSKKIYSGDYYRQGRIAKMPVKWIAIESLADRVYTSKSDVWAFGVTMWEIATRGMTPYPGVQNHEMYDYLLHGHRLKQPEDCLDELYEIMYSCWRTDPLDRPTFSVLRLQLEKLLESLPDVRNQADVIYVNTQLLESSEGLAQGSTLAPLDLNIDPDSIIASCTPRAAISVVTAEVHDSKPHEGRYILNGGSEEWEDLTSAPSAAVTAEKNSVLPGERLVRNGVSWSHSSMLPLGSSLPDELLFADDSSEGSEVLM
Sequence of FGFR3 (P22607 whole entry, looked up): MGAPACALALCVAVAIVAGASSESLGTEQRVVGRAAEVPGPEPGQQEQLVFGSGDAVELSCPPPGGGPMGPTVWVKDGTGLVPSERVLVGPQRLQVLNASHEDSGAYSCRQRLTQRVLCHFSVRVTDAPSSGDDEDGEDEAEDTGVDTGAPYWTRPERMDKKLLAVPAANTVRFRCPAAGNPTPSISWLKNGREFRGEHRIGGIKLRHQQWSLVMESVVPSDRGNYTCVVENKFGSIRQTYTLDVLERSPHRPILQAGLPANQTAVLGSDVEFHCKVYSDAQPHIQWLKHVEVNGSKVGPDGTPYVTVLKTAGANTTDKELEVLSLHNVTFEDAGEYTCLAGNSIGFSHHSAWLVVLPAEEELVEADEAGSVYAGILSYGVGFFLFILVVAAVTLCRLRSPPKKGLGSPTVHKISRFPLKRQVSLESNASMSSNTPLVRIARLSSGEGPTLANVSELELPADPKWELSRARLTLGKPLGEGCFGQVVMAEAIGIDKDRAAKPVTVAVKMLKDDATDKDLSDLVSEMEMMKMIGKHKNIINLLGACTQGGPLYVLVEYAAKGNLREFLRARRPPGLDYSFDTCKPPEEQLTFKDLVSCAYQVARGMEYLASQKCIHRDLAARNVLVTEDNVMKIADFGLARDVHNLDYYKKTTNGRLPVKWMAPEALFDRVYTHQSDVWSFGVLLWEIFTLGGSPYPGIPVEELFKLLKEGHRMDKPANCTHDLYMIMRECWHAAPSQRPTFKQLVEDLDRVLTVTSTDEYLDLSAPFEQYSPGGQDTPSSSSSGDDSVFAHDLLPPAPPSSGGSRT
Sequence of Fes (P07332 whole entry, looked up): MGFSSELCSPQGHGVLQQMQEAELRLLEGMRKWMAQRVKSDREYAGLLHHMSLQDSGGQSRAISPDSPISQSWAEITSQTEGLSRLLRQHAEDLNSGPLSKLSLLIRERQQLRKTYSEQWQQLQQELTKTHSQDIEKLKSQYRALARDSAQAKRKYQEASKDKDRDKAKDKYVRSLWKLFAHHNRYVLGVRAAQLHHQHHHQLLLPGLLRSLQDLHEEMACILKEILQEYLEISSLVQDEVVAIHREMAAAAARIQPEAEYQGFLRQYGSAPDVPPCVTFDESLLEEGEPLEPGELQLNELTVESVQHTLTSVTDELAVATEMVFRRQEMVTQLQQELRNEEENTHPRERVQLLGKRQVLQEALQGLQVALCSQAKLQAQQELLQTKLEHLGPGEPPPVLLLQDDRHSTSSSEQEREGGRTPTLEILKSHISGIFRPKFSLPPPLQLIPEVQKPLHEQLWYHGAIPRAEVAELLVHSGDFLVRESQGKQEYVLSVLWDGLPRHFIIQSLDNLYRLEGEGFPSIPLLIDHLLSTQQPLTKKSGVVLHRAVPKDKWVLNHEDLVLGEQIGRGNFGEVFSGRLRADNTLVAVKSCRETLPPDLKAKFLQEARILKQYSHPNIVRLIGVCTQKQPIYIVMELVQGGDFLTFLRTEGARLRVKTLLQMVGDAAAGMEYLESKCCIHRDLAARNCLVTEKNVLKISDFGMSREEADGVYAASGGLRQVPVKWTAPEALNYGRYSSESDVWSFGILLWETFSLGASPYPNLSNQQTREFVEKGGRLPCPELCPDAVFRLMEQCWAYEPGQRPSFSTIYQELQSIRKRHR
Sequence of Grb2 SH2 (P62993 whole entry, looked up): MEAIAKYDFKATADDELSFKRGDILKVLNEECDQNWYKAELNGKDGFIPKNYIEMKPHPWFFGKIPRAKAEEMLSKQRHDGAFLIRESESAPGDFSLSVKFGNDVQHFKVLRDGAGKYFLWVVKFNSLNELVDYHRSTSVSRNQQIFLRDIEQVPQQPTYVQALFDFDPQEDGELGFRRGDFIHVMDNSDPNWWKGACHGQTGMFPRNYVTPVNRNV

Sequence | SH2 binding enrichment (SHP2-C SH2) | SH2 binding enrichment (c-Src SH2) | SH2 binding enrichment (Grb2 SH2) | phosphorylation enrichment (Fyn) | phosphorylation enrichment (EPHB2) | phosphorylation enrichment (FGFR3) | phosphorylation enrichment (Fes) | phosphorylation enrichment (c-Abl (mouse)) | phosphorylation enrichment (EPHB1) | phosphorylation enrichment (MERTK) | phosphorylation enrichment (AncSZ) | phosphorylation enrichment (Hck) | phosphorylation enrichment (FGFR1) | phosphorylation enrichment (c-Src) | phosphorylation enrichment (Fer (mouse)) | phosphorylation enrichment (Jak2)
SVVVPYEPPGV [TP53_Y220_E224G] | 0.781 | 0.936 | 0.826 | 0.544 | 0.53 | 0.56 | 0.769 | 0.494 | 0.525 | 0.485 | 0.883 | 0.471 | 0.469 | 0.407 | 0.498 | 0.55
SVVVPYEPTEV [TP53_Y220_P223T] | 0.619 | 0.864 | 0.66 | 0.522 | 0.765 | 0.742 | 1.33 | 0.885 | 0.725 | 0.578 | 0.992 | 0.506 | 0.481 | 0.482 | 0.709 | 1.27
SVVVPYETPEV [TP53_Y220_P222T] | 0.694 | 1.83 | 0.827 | 0.541 | 0.862 | 0.774 | 1.41 | 0.849 | 0.715 | 0.556 | 1.42 | 0.56 | 0.569 | 0.505 | 0.639 | 1.14
SVVVPYGPPEV [TP53_Y220_E221G] | 0.671 | 0.537 | 0.835 | 0.46 | 0.543 | 0.556 | 0.739 | 0.601 | 0.472 | 0.476 | 0.75 | 0.41 | 0.57 | 0.425 | 0.402 | 0.689
SYMVRYNQPRV [GRIN2D_Y736] | 1.25 | 1.11 | 0.871 | 0.38 | 0.51 | 0.523 | 0.734 | 0.694 | 0.46 | 0.45 | 0.721 | 0.385 | 0.561 | 0.432 | 0.419 | 0.651
TDLAFYLVCKG [ASL_Y376_R379C_YF] | 0.461 | 0.388 | 0.732 | 0.411 | 0.593 | 0.94 | 1.7 | 1.14 | 0.79 | 0.446 | 1.31 | 0.547 | 0.551 | 0.48 | 0.647 | 1.57
TEAEPYFCSLR [NPHS1_Y1138_R1140C_YF] | 0.647 | 0.638 | 0.848 | 0.544 | 0.615 | 0.698 | 1.22 | 0.814 | 0.565 | 0.48 | 1.11 | 0.576 | 0.551 | 0.932 | 0.466 | 1.51
TEAGDYKLCFD [TMED1_Y103] | 0.636 | 0.423 | 0.778 | 0.598 | 0.65 | 1.02 | 1.35 | 0.888 | 0.773 | 0.496 | 1.38 | 0.564 | 0.653 | 0.54 | 0.619 | 1.27
TEALYYTDDPA [ADPRS_Y75_T79P] | 0.48 | 0.797 | 0.513 | 1.91 | 0.882 | 5.62 | 1.82 | 1.09 | 1.2 | 6.2 | 1.97 | 1.79 | 5.2 | 2.59 | 1.92 | 1.06
TEDPEYDVQSK [PTCHD3_Y335] | 0.871 | 0.557 | 0.913 | 0.616 | 0.661 | 0.738 | 1.01 | 0.679 | 0.521 | 0.358 | 1.18 | 0.669 | 0.689 | 0.435 | 0.564 | 0.936
TEYSQYMRRKN [MAX_Y73_I71S] | 0.411 | 0.397 | 0.653 | 0.536 | 0.563 | 0.508 | 0.622 | 0.418 | 0.476 | 0.558 | 0.674 | 0.562 | 0.548 | 0.523 | 0.443 | 0.507
TGNPAYRSFSN [IL4R_Y497_A492T] | 0.65 | 0.442 | 0.791 | 0.369 | 0.328 | 0.457 | 0.584 | 0.441 | 0.328 | 0.326 | 0.595 | 0.404 | 0.406 | 0.373 | 0.326 | 0.422
THQKSYQPGRK [CEFIP_Y210_N208K] | 0.408 | 0.514 | 0.887 | 0.371 | 0.432 | 0.362 | 0.472 | 0.35 | 0.273 | 0.308 | 0.437 | 0.52 | 0.433 | 0.322 | 0.464 | 0.349
TIMTNYNPNYC [ALK_Y1092_D1091N] | 0.715 | 0.591 | 1.12 | 0.565 | 0.5 | 0.549 | 0.901 | 0.558 | 0.619 | 0.407 | 0.758 | 0.548 | 0.545 | 0.45 | 0.46 | 0.639
TKGMIYGGGGG [PSME1_Y249] | 0.812 | 0.483 | 1.05 | 0.49 | 0.416 | 0.377 | 0.505 | 0.613 | 0.339 | 0.433 | 0.494 | 0.556 | 0.457 | 0.535 | 0.431 | 0.501
TLAHKYHGGGG [HBB_Y146_A141T] | 0.67 | 0.558 | 0.567 | 0.497 | 0.398 | 0.494 | 0.973 | 1.03 | 0.46 | 0.577 | 0.652 | 0.681 | 0.611 | 0.675 | 0.436 | 1.1
